Test results as given in patent US20230056099.

target: thrombin (human alpha-thrombin) (UniProt P00734+P00734); test: inhibition; conditions: circular (5' and 3' ends joined); 0.1 nM thrombin, 2 uM fibrinogen, absorbance 350 nm; N = random nucleotide

Sequence	IC50
ATCTCGACTAGTCATAGGGGGCGCGAACATACGCGGTTGGTGTGGTTGGCTGACAANNNNNNNTTTTGGTGTCTCGGAT [M3]	0.18 nM
ATCTCGACTAGTCATAGGGGGCGCGAACATACGCGGTTGGTGTGGTTGGCTGACAATACTCGTNNNNNNNGTCTCGGAT [M4]	0.1 nM
ATCTCGACTAGTCATAGGGGGCGCGAACATACGCGGTTGGTGTGGTTGGCTGACAATACTCGTTTTTGGTNNNNNNNNN [M5]	0.11 nM
ATCTCGANNNNNNNTAGGGGGCGCGAACATACGCGGTTGGTGTGGTTGGCTGACAATACTCGTTTTTGGTGTCTCGGAT [M2]	0.36 nM
NNNNNNNCTAGTCATAGGGGGCGCGAACATACGCGGTTGGTGTGGTTGGCTGACAATACTCGTTTTTGGTGTCTCGGAT [M1]	0.37 nM

same assay, conditions: circular; 0.1 nM thrombin, 2 uM fibrinogen, absorbance 350 nm; random pool carrying fixed GGTTGGTGTGGTTGG core

Sequence	IC50
ATCTCGACTAGTCANNNNNNNNNNNNNNNNNNNNGGTTGGTGTGGTTGGNNNNNNNNNNNNNNNNNNNNTGTCTCGGAT [Lib (random circular nucleic acid)]	72.1 nM
